This series concerns c-Jun;c-Fos (;). In words: EMSA. Particulars: EMSA: 10 mM Tris-HCl pH 7.5, 50 mM NaCl, 5 mM MgCl2, 20 min at 37 C, then 20 min with DNA, 5% native TBE-PAGE at 4 C. (In EMSA bound probe runs differently from free probe, usually more slowly.)

The IC50 is the concentration that gives 50% inhibition. Take AP-1 oligonucleotide: the IC50 is, setting by setting: (reduced APE1 + inhibitor C10 (IC50 of the compound, not of DNA)) 17 µM; (reduced APE1 + inhibitor E3330 (IC50 of the compound, not of DNA)) 36 µM.
